Like-named read-outs stand apart in the source and are kept apart here.

Assay in all cases: cell-based or functional assay
Assay [1] has as its target IL-15Rβ/γ chain (IL-2Rβ and common gamma chain) on human CD8+ T cells and NK cells (human) (UniProt P14784).
The target is the same in assay [2]. This is another data set of the same source.
The target is the same in assay [3]. This is another data set of the same source.
Assay [4] has the same target. This is another data set of the same source.

Chain of IL-15Rβ/γ chain (IL-2Rβ and common gamma chain) on human CD8+ T cells and NK cells (human) (P14784 27-551, chain 1 of 2): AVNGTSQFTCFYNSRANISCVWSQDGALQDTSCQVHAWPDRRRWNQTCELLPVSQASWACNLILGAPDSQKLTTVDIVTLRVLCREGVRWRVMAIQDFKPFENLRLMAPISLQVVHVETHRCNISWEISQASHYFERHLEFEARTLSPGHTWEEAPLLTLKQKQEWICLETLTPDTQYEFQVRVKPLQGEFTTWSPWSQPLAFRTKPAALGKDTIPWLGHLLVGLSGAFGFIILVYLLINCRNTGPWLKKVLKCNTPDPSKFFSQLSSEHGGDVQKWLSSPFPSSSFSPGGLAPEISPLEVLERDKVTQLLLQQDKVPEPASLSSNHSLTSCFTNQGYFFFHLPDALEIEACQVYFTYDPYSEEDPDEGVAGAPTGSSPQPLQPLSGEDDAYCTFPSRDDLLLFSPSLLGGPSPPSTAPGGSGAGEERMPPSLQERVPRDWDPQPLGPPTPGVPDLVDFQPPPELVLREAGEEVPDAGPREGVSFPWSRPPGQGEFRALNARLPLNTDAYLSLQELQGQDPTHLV
Chain of IL-15Rβ/γ chain (IL-2Rβ and common gamma chain) on human CD8+ T cells and NK cells (human) (P31785 23-369, chain 2 of 2, further chain): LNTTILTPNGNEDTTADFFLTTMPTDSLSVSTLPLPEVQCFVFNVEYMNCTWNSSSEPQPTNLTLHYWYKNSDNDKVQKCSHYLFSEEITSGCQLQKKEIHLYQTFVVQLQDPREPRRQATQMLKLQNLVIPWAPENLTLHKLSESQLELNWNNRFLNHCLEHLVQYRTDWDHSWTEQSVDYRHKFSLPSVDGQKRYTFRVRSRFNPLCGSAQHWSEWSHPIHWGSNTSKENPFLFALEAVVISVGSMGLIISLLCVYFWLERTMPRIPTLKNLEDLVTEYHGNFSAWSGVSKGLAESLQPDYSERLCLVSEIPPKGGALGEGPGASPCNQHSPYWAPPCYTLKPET

B1: W369-BMK1 (XENP24306) (Fc fusion, not shown: a dimerising Fc or GST)
chain: NWVNVISDLKKIEDLIQSMHIDATLYTESNVHPSCKVTAMKCFLLELQVISLESGDASIHDTVQDLIILANNSLSSNGNVTESGCKECEELEEKNIKEFLQSFVHIVQMFINTS
modifications: IL-15Rα-Fc chain, linker, Fc lack entries
In assay [1], B1 showed an EC50, % Ki67 expression, human CD8+ T cells of 28.5 nM; an EC50, % Ki67 expression, human NK cells of 5.12 nM; a Fold reduced (EC50, % Ki67), human CD8+ T cells of 155 fold; a Fold reduced (EC50, % Ki67), human NK cells of 244 fold. Also, in assay [2], the EC50, % Ki67 expression, human CD8+ T cells came out at 203 nM; the EC50, % Ki67 expression, human NK cells was determined as 35.5 nM; the Fold reduced (EC50, % Ki67), human CD8+ T cells stood at 441 fold; the Fold reduced (EC50, % Ki67), human NK cells was 355 fold. In addition, in assay [3], the EC50, % Ki67 expression, human CD8+ T cells worked out at 651 nM; the EC50, % Ki67 expression, human NK cells stood at 74.3 nM; the Fold reduced (EC50, % Ki67), human CD8+ T cells turned out to be 2170 fold; the Fold reduced (EC50, % Ki67), human NK cells is 2480 fold. In assay [4], this molecule came in with an EC50, % Ki67 expression, human CD8+ T cells of 145 nM; an EC50, % Ki67 expression, human NK cells of 39 nM; a Fold reduced (EC50, % Ki67), human CD8+ T cells of 176 fold; a Fold reduced (EC50, % Ki67), human NK cells of 231 fold.

The values are drawn from patent US20230270823A1.
